Assays:
[1] = biological target: Axonemes purified from sea urchin sperm, used as microtubule tracks (sea urchin); assay: optical trapping; fixed (stationary) trap, low z-force: oligo-labeled full-length KIF5B on 510-nm beads through a 2.8 kb DNA handle, single motors, surface-immobilized axonemes, 2 mM ATP, 30 mM HEPES, 5 mM MgSO4, 1 mM EGTA, 10% glycerol, pH 7.4 with casein
[2] = biological target: Axonemes purified from sea urchin sperm, used as microtubule tracks (sea urchin); assay: optical trapping; fixed (stationary) trap, high z-force: biotinylated K560 directly on 860-nm streptavidin beads, single motors, surface-immobilized axonemes, 2 mM ATP, 30 mM HEPES, 5 mM MgSO4, 1 mM EGTA, 10% glycerol, pH 7.4 with casein

Row | Substance | stall time before detachment (weighted average of the two decays) [1] [s] | stall time before detachment (weighted average of the two decays) [2] [s]
1 | KIF5B-GFP-SNAP, full-length human kinesin-1 KIF5B, oligo-labeled (from UniProt P33176 1-963) (natural protein) | 1.49 | 
2 | K560-GFP-SNAP, tail-truncated, constitutively active human kinesin-1 KIF5B (amino acids 1-560) (from UniProt P33176 1-560) (domain or fragment) |  | 0.27

Reference: PMC13384491
